{
  "source": "paper PMC9586334",
  "about": "(Proceedings of the National Academy of Sciences of the …, 2022)",
  "target": "T1, FhuA, outer membrane TonB-dependent transporter of E. coli (mature part, His10-TEV construct) (E. coli, UniProt P06971 34-747)",
  "T1 construct": "FhuA of E. coli, the mature part, amplified from E. coli genomic DNA; No TEV cleavage is told for the SEC and cryo-EM samples; also called wild-type FhuA; free FhuA; source: E. coli Bl21 (DE3) Δcyo, alone or co-overexpressed with Llp, purified (IMAC, SEC, in detergent)",
  "T1 sequence (looked up)": "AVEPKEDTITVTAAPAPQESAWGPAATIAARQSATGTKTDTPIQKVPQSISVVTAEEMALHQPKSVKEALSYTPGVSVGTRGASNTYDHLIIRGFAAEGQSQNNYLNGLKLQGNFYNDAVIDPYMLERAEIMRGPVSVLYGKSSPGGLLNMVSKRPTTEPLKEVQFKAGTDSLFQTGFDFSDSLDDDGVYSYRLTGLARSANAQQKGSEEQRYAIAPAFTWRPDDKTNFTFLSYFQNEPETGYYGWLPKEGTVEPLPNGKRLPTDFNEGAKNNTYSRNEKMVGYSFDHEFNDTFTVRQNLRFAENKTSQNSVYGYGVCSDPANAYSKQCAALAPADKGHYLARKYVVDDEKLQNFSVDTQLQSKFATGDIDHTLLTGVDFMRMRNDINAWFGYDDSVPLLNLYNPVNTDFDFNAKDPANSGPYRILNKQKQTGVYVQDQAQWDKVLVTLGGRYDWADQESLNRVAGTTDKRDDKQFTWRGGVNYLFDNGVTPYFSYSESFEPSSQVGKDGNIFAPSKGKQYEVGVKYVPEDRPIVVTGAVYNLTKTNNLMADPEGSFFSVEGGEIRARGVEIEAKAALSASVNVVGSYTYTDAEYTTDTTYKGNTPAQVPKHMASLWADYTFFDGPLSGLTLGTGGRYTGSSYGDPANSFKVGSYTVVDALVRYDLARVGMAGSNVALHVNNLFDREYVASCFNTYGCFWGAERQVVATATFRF",
  "test": "SEC; complex assembled in vivo by co-overexpression in E. coli, purified by IMAC and then gel filtration (Superdex-200, 10 mM Hepes, 100 mM NaCl, 0.05% LDAO, pH 7.5); fractions on SDS-PAGE",
  "settings": "partners not purified",
  "note": "Positions of bridges follow the written chain, without caps; N, C: chain ends. lipid anchor = not defined here",
  "data": [
    {"binder": "Llp, superinfection exclusion lipoprotein of bacteriophage T5 (natural protein, UniProt Q38162 16-77, looked up, disulfide 11-58; reading uncertain, Llp of bacteriophage T5, codon-optimized synthetic gene in the arabinose-inducible vector pB22; Lipoprotein; also called lytic conversion protein; SE lipoprotein; source: E. coli Bl21 (DE3) Δcyo, alone or co-overexpressed with FhuA, purified from membranes (IMAC, SEC, in detergent)) C(lipid anchor)STFGPKDIKCEAYYMQDHVKYKANVFDRKGDMFLVSPIMAYGSFWAPVSYFTEGNTCEGVF", "values": [
      {"measurement": "binding result", "value": "binds"}
    ]}
  ]
}
